B1: REGN10987 (antibody, V domains shown)
VH: QVQLVESGGGVVQPGRSLRLSCAASGFTFSNYAMYWVRQAPGKGLEWVAVISYDGSNKYYADSVKGRFTISRDNSKNTLYLQMNSLRTEDTAVYYCASGSDYGDYLLVYWGQGTLVTVSS
VL: QSALTQPASVSGSPGQSITISCTGTSSDVGGYNYVSWYQQHPGKAPKLMIYDVSKRPSGVSNRFSGSKSGNTASLTISGLQSEDEADYYCNSLTSISTWVFGGGTKLTVL
notes: also called imdevimab
B2: REGN10933 (antibody, V domains shown)
VH: QVQLVESGGGLVKPGGSLRLSCAASGFTFSDYYMSWIRQAPGKGLEWVSYITYSGSTIYYADSVKGRFTISRDNAKSSLYLQMNSLRAEDTAVYYCARDRGTTMVPFDYWGQGTLVTVSS
VL: DIQMTQSPSSLSASVGDRVTITCQASQDITNYLNWYQQKPGKAPKLLIYAASNLETGVPSRFSGSGSGTDFTFTISGLQPEDIATYYCQQYDNLPLTFGGGTKVEIK
notes: also called casirivimab

Molecular target: T1, SARS-CoV-1 S protein with C-terminal C9 tag (SARS-CoV-1 (Severe acute respiratory …, UniProt P59594))
T1 construct: also called S protein of SARS-CoV-1; SARS-spike
Test: flow cytometry on cells
Conditions: one partner purified

Binder | binding result
B1 | no binding
B2 | no binding
